Measured values taken from patent publication EP3461842A1 (Amgen Research (Munich) GmbH, dated 2019).

T1: 1-27 CD3-EpCAM, swine 27 mer (Sus scrofa CD3 epsilon 1-27, Flag tag, cynomolgus EpCAM) (Sus scrofa; cynomolgus monkey)
T1 construct: Negative control, on transfected cells
T1 chain: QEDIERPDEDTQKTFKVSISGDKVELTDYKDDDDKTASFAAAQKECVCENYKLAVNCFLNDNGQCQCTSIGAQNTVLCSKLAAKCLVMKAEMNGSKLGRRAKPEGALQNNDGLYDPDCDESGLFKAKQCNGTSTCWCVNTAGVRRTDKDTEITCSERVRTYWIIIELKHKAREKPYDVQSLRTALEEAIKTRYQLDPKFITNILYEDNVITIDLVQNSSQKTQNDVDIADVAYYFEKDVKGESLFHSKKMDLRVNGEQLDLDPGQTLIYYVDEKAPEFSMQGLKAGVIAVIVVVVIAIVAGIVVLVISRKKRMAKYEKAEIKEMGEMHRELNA

T2: 1-27 CD3-EpCAM, human 27 mer (N-terminal amino acids 1-27 of human CD3 epsilon, Flag tag, cynomolgus EpCAM) (human; cynomolgus monkey)
T2 chain: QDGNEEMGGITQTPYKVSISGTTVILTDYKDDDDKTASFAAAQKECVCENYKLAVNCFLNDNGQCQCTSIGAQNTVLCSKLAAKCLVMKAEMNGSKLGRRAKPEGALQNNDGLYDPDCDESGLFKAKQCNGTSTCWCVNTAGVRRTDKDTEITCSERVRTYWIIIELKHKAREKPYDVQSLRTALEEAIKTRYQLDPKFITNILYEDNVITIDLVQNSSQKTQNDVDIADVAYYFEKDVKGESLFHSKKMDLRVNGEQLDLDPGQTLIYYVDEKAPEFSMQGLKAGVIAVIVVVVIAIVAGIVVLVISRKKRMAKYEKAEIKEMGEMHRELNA

T3: 1-27 CD3-EpCAM, squirrel monkey 27 mer (Saimiri sciureus CD3 epsilon 1-27, Flag tag, cynomolgus EpCAM) (Saimiri sciureus; cynomolgus monkey)
T3 construct: On transfected cells
T3 chain: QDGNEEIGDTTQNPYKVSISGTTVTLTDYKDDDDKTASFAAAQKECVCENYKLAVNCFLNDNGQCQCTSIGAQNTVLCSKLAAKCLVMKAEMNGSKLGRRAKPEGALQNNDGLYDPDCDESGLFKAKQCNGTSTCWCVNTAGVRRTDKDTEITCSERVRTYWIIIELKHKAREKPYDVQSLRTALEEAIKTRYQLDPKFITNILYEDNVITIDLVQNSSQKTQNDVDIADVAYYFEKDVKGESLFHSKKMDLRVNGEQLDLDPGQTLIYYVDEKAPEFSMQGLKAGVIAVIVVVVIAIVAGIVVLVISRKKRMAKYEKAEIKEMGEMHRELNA

B1: MCSP-G4 HLP x E2M HLP (bispecific antibody)
chain: QVQLVQSGAEVKRPGASMKVSCKASGYTFTNYYIHWVRQAPGQGLEWMGWINPNSGATNYAQKFQGRVTMTRDTSTSTVYMELSSLRSEDTAVYYCAKSWVSWFASWGQGTLVTVSSGGGGSGGGGSGGGGSELVMTQSPDSLAVSLGERATINCKSSQSVLNSSNNRNYLAWYQQKPGQPPKLLIYWASTRESGVPDRFSGSGSGTDFTLTISGLQAEDVAVYYCQQHYSTPFTFGPGTKVDIKSGGGGSEVQLLESGGGLVQPGGSLKLSCAASGFTFNGYAMNWVRQAPGKGLEWVARIRSKYNNYATYYADSVKERFTISRDDSKNTAYLQMNNLKTEDTAVYYCVRHRNFGNSYLSWFAYWGQGTLVTVSSGGGGSGGGGSGGGGSELVVTQEPSLTVSPGGTVTLTCRSSTGAVTSGYYPNWVQQKPGQAPRGLIGATDMRPSGTPARFSGSLLGGKAALTLSGVQPEDEAEYYCALWYSNRWVFGGGTKLTVL
notes: plus C-terminal His6 tag
B2: EGFR-21-63 LH x A2J HLP (bispecific antibody)
chain: DIVLTQSPASLPVSLGQRATISCRASQSVSSSTYSYIHWYQQKPGQPPKLLITYASNLESGVPARFSGSGSGTDFTLDIHPVEEDDSSTYYCQHSWEIPFTFGSGTKLEIKGGGGSGGGGSGGGGSQVQLQQSGPDLVKPGASVKMSCKASGHTFTDCVIIWVKQRAGQGLEWIGQIYPGTGRSYYNEIFKGKATLTADKSSNTVHIQLSSLTSEDSAVYFCALSTLIHGTWFSYWGQGTLVTVSSGGGGSEVQLLESGGGLVQPGGSLKLSCAASGFTFNVYAMNWVRQAPGKGLEWVARIRSKYNNYATYYADSVKKRFTISRDDSKNTAYLQMNNLKTEDTAVYYCVRHGNFGNSYLSWWAYWGQGTLVTVSSGGGGSGGGGSGGGGSELVVTQEPSLTVSPGGTVTLTCRSSTGAVTSGYYPNWVQQKPGQAPRGLIGATDMRPSGTPARFSGSLLGGKAALTLSGVQPEDEAEYYCALWYSNRWVFGGGTKLTVL
notes: plus C-terminal His6 tag; also called EGFR LH x A2J HLP
B3: EGFR-21-63 LH x E2M HLP (bispecific antibody)
chain: DIVLTQSPASLPVSLGQRATISCRASQSVSSSTYSYIHWYQQKPGQPPKLLITYASNLESGVPARFSGSGSGTDFTLDIHPVEEDDSSTYYCQHSWEIPFTFGSGTKLEIKGGGGSGGGGSGGGGSQVQLQQSGPDLVKPGASVKMSCKASGHTFTDCVIIWVKQRAGQGLEWIGQIYPGTGRSYYNEIFKGKATLTADKSSNTVHIQLSSLTSEDSAVYFCALSTLIHGTWFSYWGQGTLVTVSSGGGGSEVQLLESGGGLVQPGGSLKLSCAASGFTFNGYAMNWVRQAPGKGLEWVARIRSKYNNYATYYADSVKERFTISRDDSKNTAYLQMNNLKTEDTAVYYCVRHRNFGNSYLSWFAYWGQGTLVTVSSGGGGSGGGGSGGGGSELVVTQEPSLTVSPGGTVTLTCRSSTGAVTSGYYPNWVQQKPGQAPRGLIGATDMRPSGTPARFSGSLLGGKAALTLSGVQPEDEAEYYCALWYSNRWVFGGGTKLTVL
notes: plus C-terminal His6 tag; also called EGFR LH x E2M HLP
B4: A2J HLP single-chain antibody (scFv)
scFv: EVQLLESGGGLVQPGGSLKLSCAASGFTFNVYAMNWVRQAPGKGLEWVARIRSKYNNYATYYADSVKKRFTISRDDSKNTAYLQMNNLKTEDTAVYYCVRHGNFGNSYLSWWAYWGQGTLVTVSSGGGGSGGGGSGGGGSELVVTQEPSLTVSPGGTVTLTCRSSTGAVTSGYYPNWVQQKPGQAPRGLIGATDMRPSGTPARFSGSLLGGKAALTLSGVQPEDEAEYYCALWYSNRWVFGGGTKLTVL
notes: Crude periplasmic preparation, Flag and His6 tags
B5: E2M HLP single-chain antibody (scFv)
scFv: EVQLLESGGGLVQPGGSLKLSCAASGFTFNGYAMNWVRQAPGKGLEWVARIRSKYNNYATYYADSVKERFTISRDDSKNTAYLQMNNLKTEDTAVYYCVRHRNFGNSYLSWFAYWGQGTLVTVSSGGGGSGGGGSGGGGSELVVTQEPSLTVSPGGTVTLTCRSSTGAVTSGYYPNWVQQKPGQAPRGLIGATDMRPSGTPARFSGSLLGGKAALTLSGVQPEDEAEYYCALWYSNRWVFGGGTKLTVL
notes: as for B4

Experiments:
[1] = target: T4, human CD3 (epsilon) on human T cells (HPB-ALL cell line, human PBMC) (human, UniProt P07766 23-207); assay: FACS, HPB-ALL
T4 construct: whole, on cells; also called native CD3
T4 sequence (P07766 23-207): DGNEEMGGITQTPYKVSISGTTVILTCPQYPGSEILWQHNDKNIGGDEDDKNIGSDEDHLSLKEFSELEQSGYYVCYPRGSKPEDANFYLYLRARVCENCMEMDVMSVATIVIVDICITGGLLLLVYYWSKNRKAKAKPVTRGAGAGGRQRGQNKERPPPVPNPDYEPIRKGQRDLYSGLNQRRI

[2] = target: T5, 1-27 CD3-Fc (N-terminal amino acids 1-27 of the mature human CD3 epsilon chain fused to the hinge and Fc … (human)); assay: SPR (Biacore 2000), 1-27 CD3-Fc coupled to CM5 chip, Langmuir model
T5 construct: The synthetic gene also codes a 19 amino acid immunoglobulin leader; also called 27 aa huCD3E; human CD3 epsilon (aa 1-27)- Fc fusion protein

[3] = target: T5, 1-27 CD3-Fc (N-terminal amino acids …); assay: ELISA, captured 1-27 CD3-Fc, periplasmic scFv
[4] = target: T1, 1-27 CD3-EpCAM, swine 27 mer (Sus …); assay: FACS on transfected 293-HEK cells
[5] = target: T2, 1-27 CD3-EpCAM, human 27 mer …; assay: FACS, 293-HEK transfectant
[6] = target: T3, 1-27 CD3-EpCAM, squirrel monkey 27 mer …; assay: FACS, 293-HEK transfectant

Row | Binder | Kd [2] [µM] | binding result [3] | other results
1 | B1 |  |  | binding result [1]: binds
2 | B2 | 0.249 |  | 
3 | B3 | 2.46 |  | 
4 | B4 |  | binds | 
5 | B5 |  | binds | binding result [4]: no binding; binding result [5]: binds; binding result [6]: binds
